Measurements from article PMC11846418 (Cancer Cell International, 2025).

Target: HA-CDK1 (UniProt P06493 1-297)
Assay: pull-down

HA-CDK1, sequence (P06493 whole entry): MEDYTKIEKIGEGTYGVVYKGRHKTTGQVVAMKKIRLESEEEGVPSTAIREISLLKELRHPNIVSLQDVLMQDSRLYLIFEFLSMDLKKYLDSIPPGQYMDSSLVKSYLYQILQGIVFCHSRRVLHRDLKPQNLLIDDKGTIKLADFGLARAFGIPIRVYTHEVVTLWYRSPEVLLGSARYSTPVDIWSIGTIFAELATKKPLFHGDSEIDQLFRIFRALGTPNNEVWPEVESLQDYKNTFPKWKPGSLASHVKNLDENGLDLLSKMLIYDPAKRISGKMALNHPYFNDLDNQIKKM

binding result: binds
B1: GST-USP7 210-500 (domain or fragment, UniProt Q93009 210-500, looked up)
chain: HTGYVGLKNQGATCYMNSLLQTLFFTNQLRKAVYMMPTEGDDSSKSVPLALQRVFYELQHSDKPVGTKKLTKSFGWETLDSFMQHDVQELCRVLLDNVENKMKGTCVEGTIPKLFRGKMVSYIQCKEVDYRSDRREDYYDIQLSIKGKKNIFESFVDYVAVEQLDGDNKYDAGEHGLQEAEKGVKFLTLPPVLHLQLMRFMYDPQTDQNIKINDRFEFPEQLPLDEFLQKTDPKDPANYILHAVLVHSGDNHGGHYVVYLNPKGDGKWCKFDDDVVSRCTKEEAIEHNYGG
